Assay results published in patent publication US20080044421A1.

Target: CD20 (human) (UniProt P11836)
Experiment: FACS on Ramos, Daudi, Raji and BJAB B lymphoma cells; range over four cell lines

UniProt P11836, sequence (P11836 whole entry): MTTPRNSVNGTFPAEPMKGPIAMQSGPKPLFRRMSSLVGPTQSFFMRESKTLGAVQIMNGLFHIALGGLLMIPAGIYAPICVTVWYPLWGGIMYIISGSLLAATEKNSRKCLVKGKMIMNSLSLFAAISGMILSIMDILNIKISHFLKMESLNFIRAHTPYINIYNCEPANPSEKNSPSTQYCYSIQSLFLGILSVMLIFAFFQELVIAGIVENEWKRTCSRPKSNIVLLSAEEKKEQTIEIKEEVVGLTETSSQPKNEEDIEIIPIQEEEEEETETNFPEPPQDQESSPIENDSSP

mean fluorescence shift: 5 to 15 units
Substance: RITUXAN (rituximab), monoclonal antibody specific for CD20
